# In patent US8530235B2, “Medium that supports culture of an oocyte and modulation of granulosa cell apoptosis” (Adelaide Research & Innovation Pty Ltd., priority 2005, dated 2013):
# B1: BMP-6: Recombinant human BMP-6 obtained from R&D systems (protein, UniProt P22004 375-513, looked up)
# Bone morphogenetic protein 6: SASSRRRQQSRNRSTQSQDVARVSSASDYNSSELKTACRKHELYVSFQDLGWQDWIIAPKGYAANYCDGECSFPLNAHMNATNHAIVQTLVHLMNPEYVPKPCCAPTKLNAISVLYFDDNSNVILKKYRNMVVRACGCH
# B2: activin A: TGF-β superfamily member, ligand of ALK4 (protein, UniProt P08476 311-426, looked up)
# Inhibin beta A chain: GLECDGKVNICCKKQFFVSFKDIGWNDWIIAPSGYHANYCEGECPSHIAGTSGSSLSFHSTVINHYRMRGHSPFANLKSCCVPTKLRPMSMLYYDDGQNIIKKDIQNMIVEECGCS
# modifications: Inhibin beta A chain
# notes: TGF-β superfamily member, ligand of ALK4
# B3: gremlin: BMP antagonist (BMP-2, BMP-4, BMP-7) obtained from R&D systems (protein, UniProt O60565 25-184, looked up)
# Gremlin-1: KKKGSQGAIPPPDKAQHNDSEQTQSPQQPGSRNRGRGQGRGTAMPGEEVLESSQEALHVTERKYLKRDWCKTQPLKQTIHEEGCNSRTIINRFCYGQCNSFYIPRHIRKEEGSFQSCSFCKPKKFTTMMVTLNCPELQPPTKKKRVTRVKQCRCISIDLD
# Experiments:
# cumulus cells [1] = assay: Staurosporine-induced cumulus cell apoptosis in OOX (TUNEL); assay type: cell-based, Bovine; details: for incidence of CC apoptosis: OOX alone, without 41%; for CC apoptosis of treated OOX exposed to staurosporine: 10% BMP-15 or 10 ng/ml BMP-6
# Protocol: CC apoptoic DNA was detected using TUNEl (Roche Diagnostic, Penzberg, Germany) according to the manufacturer's instructions. […] Complexes were then permeabilized in 0.11/u Triton X-100 in 0.1% sodium citrate for 1 hour at room temperature and washed 3 times in PBS/BSA. The complexes were then incubated in fluorescein-conjugated dUTP and terminal deoxynucleotide transferase (TUNEl reagents, Roche) for 1 hour at 37° C. in the dark. Positive controls were incubated in DNAse 1 (0.005 U/µl), which cleaves all DNA, for 20 minutes at room temperature and washed twice in PBS/BSA before TUNEl. Negative controls were incubated in fluorescein-dUTP in the absence of TdT. After TUNEl, complexes were washed twice in PBS/BSA and counterstained with propidium iodide 0.5 μg/ml (PI) plus RNase A (0.1 mg/ml) for 1 hour at room temperature in the dark to label all nuclei. Complexes were then washed twice in PBS/BSA and mounted with slight coverslip compression in VectaShield anti-bleaching solution (Vector labs, Burlingame, Calif.), and stored in the dark at 4° C. for confocal analysis. […] These optical section images were acquired and saved as independent colour channels (green, apoptotic cumulus fluorescence and red, nuclear cumulus fluorescence). The captured images were then processed in Scanalytics IPlab software Version 3.6. (Scanalytics, Fairfax, Va.). Quantification of CC number (for each colour channel) was independently measured using a macro script utilizing an auto segmentation filter for each optical section percentile (3 optical “z”-plane sections for each complex). A percentage of apoptotic nuclei were generated for each slice and the three percentile values were then averaged to achieve a representation of the total apoptotic nuclei percentage for the whole complex. These processes were repeated separately on each individual complex. A preliminary experiment was conducted to determine the apoptotic effect of staurosporine on bovine CC, which induced apoptosis in a dose-dependent manner (range; 0.1-100 μM, data not shown). The aim of this experiment was to determine whether OSF could prevent CC from undergoing apoptosis induced by staurosporine. OOX alone or co-cultured with 35 DO, 10 ng/ml BMP-6 or 10% (v/v) BMP-15, and were then exposed to either 0.1 μM or 1.0 μM staurospourine for the last 6 hours of the 24 hour incubation period. Three replicates of this experiment were carried out using 10 OOX per treatment group per replicate experiment.
# cumulus cells [2] = assay: Cumulus cell apoptosis in oocytectomized complexes (OOX) and COC, TUNEL with confocal microscopy; assay type: cell-based, Bovine
# Protocol: Bovine ovaries were collected from local abattoir and transported to the laboratory in warm saline (30-35° C.). Cumulus-oocyte complexes (COC) were aspirated from antral follicles (2- to 8-mm diameter) using an 18-gauge needle and a 10-ml syringe containing ˜2 ml aspiration media (Hepes-buffered Tissue Cultured Medium-199: TCM-199, ICN Biochemicals, Irvine, Calif., USA) supplemented with 50 μg/ml kanamycin (Sigma-Aldrish, St. louis, Mo.), 4 mg/ml fatty acid-free bovine serum albumin (FAF-BSA) (ICPbio ltd, Auckland, NZ). Intact COC with compact cumulus vestment greater than five cell layers and evenly pigmented cytoplasm were selected under a dissecting microscope and washed twice in Hepes-buffered TCM-199 and once in corresponding culturing media.
# The cytoplasm of each oocyte was microsurgically removed from the COC (oocytectomy) using a micromanipulator as described in Buccione et al (Buccione et al. (1990) Dev Biol 138, 16-25.). The resulting oocytectomized complex (OOX) consists of a hollow zona pellucida surrounded by several layers of intact CC.
# Denuded oocytes (DO) were generated by removing CC from COC by vortexing for approximately 4 minutes in 2 ml H-TCM-199/BSA. Any remaining CC were removed by repeated passage of the oocytes through a fine-bore fire-polished glass pipette in H-TCM-199/BSA.
# CC apoptoic DNA was detected using TUNEl (Roche Diagnostic, Penzberg, Germany) according to the manufacturer's instructions. Briefly, following culture COC and OOX complexes were washed twice in PBS (pH 7.4) containing 1% BSA, fixed in 4% paraformaldehyde in PBS (pH 7.4) overnight at 4° C. and washed twice with PBS/BSA before placing on Cell-Tak-coated coverslips (Beckton Dickinson Biosciences, Franklin lakes, N.J.). Complexes were then permeabilized in 0.11/u Triton X-100 in 0.1% sodium citrate for 1 hour at room temperature and washed 3 times in PBS/BSA. The complexes were then incubated in fluorescein-conjugated dUTP and terminal deoxynucleotide transferase (TUNEl reagents, Roche) for 1 hour at 37° C. in the dark. Positive controls were incubated in DNAse 1 (0.005 U/µl), which cleaves all DNA, for 20 minutes at room temperature and washed twice in PBS/BSA before TUNEl. Negative controls were incubated in fluorescein-dUTP in the absence of TdT. After TUNEl, complexes were washed twice in PBS/BSA and counterstained with propidium iodide 0.5 μg/ml (PI) plus RNase A (0.1 mg/ml) for 1 hour at room temperature in the dark to label all nuclei. Complexes were then washed twice in PBS/BSA and mounted with slight coverslip compression in VectaShield anti-bleaching solution (Vector labs, Burlingame, Calif.), and stored in the dark at 4° C. for confocal analysis.
# Apoptosis in COC and OOX was visualised and quantified using confocal microscopy. Dual fluorescence emission from CC was detected using a Nikon C1 Confocal Scanning Head and a Nikon TE2000E microscope (Nikon, Tokyo, Japan). Simultaneous emission capture of the apoptotic signal (fluorescein, lacer excitation 488 nm, emission 510-530 nm) and the nuclear signal (propidium iodide, excitation lacer 532, emission 590-640 nm) was performed.
# In order to generate an accurate representation of the overall apoptotic incidence for all complexes, the depth of each complex was measured through a Z series to divide the construct into three percentiles (optical Z plane sections) at 25%, 50% and 75%. These optical section images were acquired and saved as independent colour channels (green, apoptotic cumulus fluorescence and red, nuclear cumulus fluorescence). The captured images were then processed in Scanalytics IPlab software Version 3.6. (Scanalytics, Fairfax, Va.). Quantification of CC number (for each colour channel) was independently measured using a macro script utilizing an auto segmentation filter for each optical section percentile (3 optical “z”-plane sections for each complex).
# [3] = test system: cumulus expansion of oocytectomised (OOX) complexes; assay: FSH-induced cumulus expansion score of OOX complexes; assay type: cell-based, mice; details: score 0 (no expansion) to +4 (maximum expansion); mean ±SEM; OOX complexes with FSH
# Protocol: Members of the TGF-β superfamily are prime candidates for the mouse cumulus expansion-enabling factor (CEEF). This study was conducted to examine TGF-β superfamily processes regulating cumulus expansion. COCs were collected from eGG-primed mice and the oocyte microsurgically removed to generate oocytectomised (OOX) complexes. […] The type-I receptors for GDF9 and […] are ALK5 and ALK4, respectively. We tested the ability of an ALK4/5/7 kinase inhibitor to neutralize cumulus expansion.
molecule,measurement,setting,value
"CN[C@@H]1C[C@H]2O[C@@](C)([C@@H]1OC)n1c3ccccc3c3c4c(c5c6ccccc6n2c5c31)C(=O)NC4 [staurosporine, reference compound]",incidence of CC apoptosis,cumulus cells [1]; 0.1 μM staurosporine for the last 6 h of 24 h,51%
same,incidence of CC apoptosis,cumulus cells [1]; 1.0 μM staurosporine for the last 6 h of 24 h,74%
B1,effect on incidence of cumulus cell apoptosis,"cumulus cells [2]; OOX cultured with increasing doses (GDF-9 0-175 ng/ml, BMP-6 0-100 ng/ml, BMP-15 0-20% v/v, 5-50 DO), presence or absence of FSH",significantly decreased
same,"effect on CC apoptosis, test for additive effect","cumulus cells [2]; OOX treated with DO, 10 ng/ml BMP-6 and/or 10% v/v BMP-15",significantly (P<0.001) decreased
same,CC apoptosis of treated OOX exposed to staurosporine,cumulus cells [1]; 0.1 μM staurosporine,21%
same,CC apoptosis of treated OOX exposed to staurosporine,cumulus cells [1]; 1 μM staurosporine,31%
B2,cumulus expansion score,[3],2.6±0.1
B3,antagonism of the inhibitory effect of BMP-7 on CC apoptosis,"cumulus cells [2]; OOX + 100 ng/ml BMP-7, 2 μg/ml gremlin, not when BMP-15 was present",significantly (P<0.001) reversed
same,apoptosis of BMP-15-treated OOXs with antagonist,"cumulus cells [2]; OOX + 10% BMP-15, increasing dose of gremlin (0-40 μg/ml)",not significantly increased
